Measurements as given in patent publication US6436691B1, “Chemical compounds” (Zeneca Limited, priority 1995, dated 2002).

Experiments:
[1] = Conversion of prodrug of Example 24 to drug of Example 25 by HCPB mutants, HPLC (Example 20); format: biochemical; settings: enzyme 15 μg/ml; 0.5 mM prodrug of Example 24; 5 minutes at 37° C.
Procedure, shortened: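 Reactions stopped with MeCN plus 0.2% TFA, with [Q54R,D145A,D253K] and [G251T,D253K]HCPB mutants used at 0.75 μg per reaction. Drug formed from prodrug quantified by HPLC (70% MeCN, 30% water, 0.1% TFA; detection 260 nm) against drug calibration curves.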

[2] = Conversion of glutamic acid prodrug to intermediate by mutant and native HCPB, HPLC assay (Example 8); format: biochemical; settings: prodrug 0.25-5.0 mM
[3] = Conversion of Hipp-Asp by periplasmic shockate of HCPB mutants, 24 h (Example 18); format: biochemical; settings: shockate concentration in reaction mixture 50 %; 24 h at 37° C.
Procedure: (§1) The activity of [G251T,D253K]HCPB was measured using the assay conditions described in Example 17 but using either 50 μl of a neat or 1 in 10 or 1 in 100 dilution of [G251T,D253K]HCPB crude E.coli periplasmic shockate (shockate) sample in place of purified enzyme. Samples were incubated for 24 h at 37° C. […] For other HCPB mutants, the reaction volume was 250 μl and contained 125 μl of neat shockate or 1 in 50 dilution of shockate. The shockate samples were prepared as described in Example 16. The amount of Hippuric acid produced in 24 h was quantified by HPLC as described in Example 17 and the results are shown in Table 6 and are expressed as the percentage conversion of substrate into product in 24 h at 37° C.

[4] = Conversion of Hipp-Glu by purified HCPB mutants, 30 minutes, HPLC (Example 17); format: biochemical; settings: 0.5 mM substrate, 30 minutes at 37° C.
Procedure, shortened: (§2)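 Purified human CPB mutants were incubated with hippuryl-L-Arg, -Glu or -Asp for 30 min at 37 °C, then stopped with acidic aqueous methanol. Hippuric acid was quantified by HPLC (20% methanol/50 mM phosphate pH 6.5, 230 nm). Values are % substrate converted to hippuric acid in 30 min.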

[5] = Km and kcat of HCPB mutants with Hipp-Asp (Example 7); format: biochemical; settings: Hipp-Asp 0.25-5.0 mM; pH 7.5; 5 h at 37° C.
Procedure: Hipp-Glu and Hipp-Asp were diluted in range 0.25-8.0 mM and 0.25-5.0 mM respectively in 0.025 M Tris-HCL buffer, pH 7.5. Where necessary substrate samples were adjusted to pH 7.5 with 1M NaOH.
Samples were incubated for 5 h at 37° C. Reactions were terminated by the addition of 500 μl methanol/distilled water (80/20) containing 0.2% TFA. The amount of hippuric acid produced was quantified by HPLC as described in Example 6.
Km and Vmax values were calculated using the ENZFITTER software programme (Biosoft, Perkin Elmer).

[6] = Conversion of Hipp-Arg to hippuric acid by mutant and native human CPB, HPLC assay (Example 6); format: biochemical; settings: 5 hr at 37° C.; 4 μg enzyme
Procedure: (§3) Purified mutants of human CPB (D253K and D253R; Examples 1-3) and native human CPB, produced as described in Reference Example 12, were assayed for their ability to convert either hippuryl-L-aspartic acid (Hipp-Asp—Reference Example 2), hippuryl-L-glutamic acid (Hipp-Glu—Reference Example 1) or hippuryl-L-arginine (Sigma Chemical Company—cat no. H6625) to hippuric acid using a HPLC based assay.
(§4) The reaction mixture (250 μl) contained 4 μg human CPB (native or mutant) and 0.5 mM Hipp-Asp or Hipp-Glu in 0.025 M Tris-HCL, pH 7.5. Samples were incubated for 5 hr at 37° C. The reactions were terminated by the addition of 250 μl of 80% methanol, 20% distilled water, 0.2% trifluoro acetic acid and the amount of hippuric acid generated was quantified by HPLC.
(§5) HPLC analysis was carried out using a Hewlett Packard 1090 Series 11 (with diode array) HPLC system. Samples (50 μl) were injected onto a Hichrom Hi-RPB column (25 cm) and separated using a mobile phase of 40% methanol, 60% distilled water, 0.1% trifluoro acetic acid at a flow rate of 1 ml/min. The amount of product (hippuric acid) produced was determined from calibration curves generated with known amounts of hippuric acid (Sigma-H6375). The results are shown in Table 1 and are expressed as the percentage conversion of substrate into product in 5 hr at 37° C. with 4 μg enzyme.

[7] = Conversion of Hipp-Arg by periplasmic shockate of HCPB mutants, 24 h (Example 18); format: biochemical; settings: shockate concentration in reaction mixture 50 %; 24 h at 37° C.
Procedure: as §1

[8] = tested on: LoVo colorectal tumour cells
[9] = Conversion of Hipp-Asp by purified HCPB mutants, 30 minutes, HPLC (Example 17); format: biochemical; settings: 0.5 mM substrate, 30 minutes at 37° C.
Procedure, shortened: as §2

[10] = Conversion of Hipp-Asp to hippuric acid by mutant and native human CPB, HPLC assay (Example 6); format: biochemical; settings: 5 hr at 37° C.; 4 μg enzyme; 0.5 mM substrate
Procedure: as §3, §4, §5

[11] = Conversion of Hipp-Arg by purified HCPB mutants, 30 minutes, HPLC (Example 17); format: biochemical; settings: 0.5 mM substrate, 30 minutes at 37° C.
Procedure, shortened: as §2

[12] = Conversion of Hipp-Glu by periplasmic shockate of HCPB mutants, 24 h (Example 18); format: biochemical; settings: shockate concentration in reaction mixture 50 %; 24 h at 37° C.
Procedure: as §1

[13] = Km and kcat of HCPB mutants with Hipp-Glu (Example 7); format: biochemical; settings: Hipp-Glu 0.25-8.0 mM; pH 7.5; 5 h at 37° C.
Procedure, shortened: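 Hipp-Glu (0.25-8.0 mM) or Hipp-Asp (0.25-5.0 mM) in 0.025 M Tris-HCl, pH 7.5, was incubated with the mutant enzymes for 5 h at 37° C. Reactions were quenched with methanol/water containing 0.2% TFA, and hippuric acid was quantified by HPLC. Km and Vmax were obtained by curve fitting.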

[14] = Conversion of Hipp-Glu to hippuric acid by mutant and native human CPB, HPLC assay (Example 6); format: biochemical; settings: 5 hr at 37° C.; 4 μg enzyme; 0.5 mM substrate
Procedure: as §3, §4, §5

[15] = Activity against Hipp-Arg in crude E. coli periplasmic shockate relative to mature HCPB (Example 16); format: biochemical
Text: A number of other mutant HCPBs have been constructed in a similar manner to the methods described in Reference Examples 7 and 8, and Examples 12, 13, 14 and 15. In each case oligos were constructed to introduce specific changes in the gene sequence by methods similar to those described above. In some cases additional mutations were identified upon complete sequencing of the mutated gene, and these were presumably introduced during the PCR reactions. Mutants with enzyme activity against substrate analogues (see Example 18 below) have been identified, and examples of these are given in Table 4 below. […] This material is subsequently referred to as periplasmic shockate or shockate and is prepared by the following procedure.
1. A single colony was used to inoculate 75 ml of L-broth nutrient media containing 10 μg/ml tetracycline and arabinose to a final concentration of 0.01% (w/v). […]
The activity of [G251T,D253K]HCPB was measured using the assay conditions described in Example 17 but using either 50 μl of a neat or 1 in 10 or 1 in 100 dilution of [G251T,D253K]HCPB crude E.coli periplasmic shockate (shockate) sample in place of purified enzyme. […] The amount of Hippuric acid produced in 24 h was quantified by HPLC as described in Example 17 and the results are shown in Table 6 and are expressed as the percentage conversion of substrate into product in 24 h at 37° C.

In the case of O=C(O)CCC(=O)Oc1ccc(N(CCCl)CCCl)cc1, the melting point is reported as 98 to 100 °C.

B1: D253K HCPB: mature HCPB with aspartate 253 changed to lysine, C-terminal (His)6-c-myc tag (protein, UniProt P15086 111-417, looked up, variant D253K)
Carboxypeptidase B: ATGHSYEKYNKWETIEAWTQQVATENPALISRSVIGTTFEGRAIYLLKVGKAGQNKPAIFMDCGFHAREWISPAFCQWFVREAVRTYGREIQVTELLDKLDFYVLPVLNIDGYIYTWTKSRFWRKTRSTHTGSSCIGTDPNRNFDAGWCEIGASRNPCDETYCGPAAESEKETKALADFIRNKLSSIKAYLTIHSYSQMMIYPYSYAYKLGENNAELNALAKATVKELASLHGTKYTYGPGATTIYPAAGGSKDWAYDQGIRYSFTFELRDTGRYGFLLPESQIRATCEETFLAIKYVASYVLEHLY
modifications: (His)6-c-myc tag
In the case of B1, the “Prodrug Hydrolysis (%)” value [1] is reported as 70.4%, the “drug concentration at end of reaction” value [1] is reported as 0.352 mM and the “kcat, glutamic acid prodrug” value [2] is reported as 0.016 s⁻¹. The “Vmax, glutamic acid prodrug” value ([2]; enzyme 0.25 mg/ml) was 0.000117 mM/s, the “Hipp-Asp (% conversion)” value [3] was 2.0% and the “Hipp-Glu (% conversion)” value ([4]; enzyme 2.5 μg/ml) was 14.6%. The “Hipp-Glu (% conversion)” value ([4]; enzyme 25 μg/ml) was 79%, the Km [5] was 2.7 mM and the “kcat, Hipp-Asp” value [5] was 0.26 s⁻¹. For the same molecule, the “Hipp-Arg (% conversion to Hippuric acid)” value [6] was under 2%, the “Hipp-Arg (% conversion)” value [7] was 0% and the “cytotoxicity of the glutamic acid prodrug with enzyme added” value ([8]; 100 μg enzyme added to assay wells containing glutamic acid prodrug) was “comparable to that of the active drug”. For the same molecule, the “toxicity of prodrug of Example 21 with enzyme added” value ([8]; 2.4 to 11.75 μg/ml enzyme added to prodrug 500 μM, FIG. 16) was “matched that seen with 200 μM of the active drug”, the “Hipp-Asp (% conversion)” value ([9]; enzyme 2.5 μg/ml) was 2.9% and the “Hipp-Asp (% conversion)” value ([9]; enzyme 25 μg/ml) was 22%. For the same molecule, the “Hipp-Asp (% conversion to Hippuric acid)” value [10] was 78%, the “Hipp-Arg (% conversion)” value ([11]; enzyme 2.5 μg/ml) was 0% and the “Hipp-Arg (% conversion)” value ([11]; enzyme 25 μg/ml) was 0%. For the same molecule, the “Hipp-Glu (% conversion)” value [12] was 7.4%, the Km [13] was 5.3 mM and the “kcat, Hipp-Glu” value [13] was 3.8 s⁻¹. The “Hipp-Glu (% conversion to Hippuric acid)” value [14] was 91%.

B2: C288A: HCPB mutant with C288A (protein, UniProt P15086 111-417, looked up, variant C288A)
Carboxypeptidase B: ATGHSYEKYNKWETIEAWTQQVATENPALISRSVIGTTFEGRAIYLLKVGKAGQNKPAIFMDCGFHAREWISPAFCQWFVREAVRTYGREIQVTELLDKLDFYVLPVLNIDGYIYTWTKSRFWRKTRSTHTGSSCIGTDPNRNFDAGWCEIGASRNPCDETYCGPAAESEKETKALADFIRNKLSSIKAYLTIHSYSQMMIYPYSYAYKLGENNAELNALAKATVKELASLHGTKYTYGPGATTIYPAAGGSDDWAYDQGIRYSFTFELRDTGRYGFLLPESQIRATAEETFLAIKYVASYVLEHLY
In the case of B2, the “Hipp-Arg, activity relative to mature HCPB” value [15] is reported as “d (activity 25% of mature HCPB (described in Reference Examples 7 and 8))”.

B3: C288S: HCPB mutant with C288S (protein, UniProt P15086 111-417, looked up, variant C288S)
Carboxypeptidase B: ATGHSYEKYNKWETIEAWTQQVATENPALISRSVIGTTFEGRAIYLLKVGKAGQNKPAIFMDCGFHAREWISPAFCQWFVREAVRTYGREIQVTELLDKLDFYVLPVLNIDGYIYTWTKSRFWRKTRSTHTGSSCIGTDPNRNFDAGWCEIGASRNPCDETYCGPAAESEKETKALADFIRNKLSSIKAYLTIHSYSQMMIYPYSYAYKLGENNAELNALAKATVKELASLHGTKYTYGPGATTIYPAAGGSDDWAYDQGIRYSFTFELRDTGRYGFLLPESQIRATSEETFLAIKYVASYVLEHLY
In the case of B3, the “Hipp-Arg, activity relative to mature HCPB” value [15] is reported as “c (activity 75% of mature HCPB (described in Reference Examples 7 and 8))”.
